In the supplement of paper PMC5998384:

Legend:
HeLa Kyoto [1] = assay: solubility in G1/S (NP-40 vs SDS abundance) (log2 ratio); higher = more soluble; settings: cell cycle stage: G1/S
HeLa Kyoto [2] = assay: thermal stability score vs G1/S (z-score of summed log2 fold changes over temperatures); higher = more thermally stable than in G1/S
HeLa Kyoto [3] = assay: melting temperature (median over replicates), in situ; higher = more thermally stable
HeLa Kyoto [4] = assay: solubility change mitosis vs G1/S (difference of NP-40 vs SDS log2 ratios) (log2 ratio difference); higher = more soluble in mitosis
[5] = cell cycle stage: early G1 (4.5 h after nocodazole release)
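Wherever melting temperature (median over replicates), in situ is given: HeLa Kyoto cells synchronized by double thymidine or nocodazole block, proteins quantified by TMT10plex mass spectrometry, three independent biological replicates.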
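Wherever solubility change mitosis vs G1/S (difference of NP-40 vs SDS log2 ratios) is given: synchronized HeLa Kyoto cells (double thymidine block for G1/S, nocodazole release for mitosis), protein amounts in NP-40 versus SDS lysates quantified by mass spectrometry, three biological replicates.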
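Wherever solubility in G1/S (NP-40 vs SDS abundance) is given: HeLa Kyoto cells arrested at G1/S by double thymidine block, proteins quantified by TMT10plex mass spectrometry in mild NP-40 versus SDS extracts, three biological replicates.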
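Wherever thermal stability score vs G1/S (z-score of summed log2 fold changes over temperatures) is given: synchronized HeLa Kyoto cells, proteins quantified by TMT10plex mass spectrometry, three biological replicates, mitosis taken 0.5 h after nocodazole release, G1/S directly after double thymidine block.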

Sequence | solubility in G1/S (log2) (HeLa Kyoto [1]) | thermal stability score (HeLa Kyoto [2]; [5]) | thermal stability score (HeLa Kyoto [2]; cell cycle stage: mitosis) | melting temperature (HeLa Kyoto [3]; cell cycle stage: G1/S) [°C] | melting temperature (HeLa Kyoto [3]; cell cycle stage: mitosis) [°C] | solubility change mitosis (log2) (HeLa Kyoto [4])
MAGRSMQAARCPTDELSLTNCAVVNEKDFQSGQHVIVRTSPNHRYTFTLKTHPSVVPGSIAFSLPQRKWAGLSIGQEIEVSLYTFDKAKQCIGTMTIEIDFLQKKSIDSNPYDTDKMAAEFIQQFNNQAFSVGQQLVFSFNEKLFGLLVKDIEAMDPSILKGEPATGKRQKIEVGLVVGNSQVAFEKAENSSLNLIGKAKTKENRQSIINPDWNFEKMGIGGLDKEFSDIFRRAFASRVFPPEIVEQMGCKHVKGILLYGPPGCGKTLLARQIGKMLNAREPKVVNGPEILNKYVGESEANIRKLFADAEEEQRRLGANSGLHIIIFDEIDAICKQRGSMAGSTGVHDTVVNQLLSKIDGVEQLNNILVIGMTNRPDLIDEALLRPGRLEVKMEIGLPDEKGRLQILHIHTARMRGHQLLSADVDIKELAVETKNFSGAELEGLVRAAQSTAMNRHIKASTKVEVDMEKAESLQVTRGDFLASLENDIKPAFGTNQEDYASYIMNGIIKWGDPVTRVLDDGELLVQQTKNSDRTPLVSVLLEGPPHSGKTALAAKIAEESNFPFIKICSPDKMIGFSETAKCQAMKKIFDDAYKSQLSCVVVDDIERLLDYVPIGPRFSNLVLQALLVLLKKAPPQGRKLLIIGTTSRKDVLQEMEMLNAFSTTIHVPNIATGEQLLEALELLGNFKDKERTTIAQQVKGKKVWIGIKKLLMLIEMSLQMDPEYRVRKFLALLREEGASPLDFD [NSF] | 0.236 | 0.564 | 0.772 | 49.8 | 49.6 | -0.153
MAGSSEEAPDYGRGVVIMDDWPGYDLNLFTYPQHYYGDLEYVLIPHGIIVDRIERLAKDIMKDIGYSDIMVLCVLKGGYKFCADLVEHLKNISRNSDRFVSMKVDFIRLKSYRNDQSMGEMQIIGGDDLSTLAGKNVLIVEDVVGTGRTMKALLSNIEKYKPNMIKVASLLVKRTSRSDGFRPDYAGFEIPNLFVVGYALDYNEYFRDLNHICVINEHGKEKYRV [PRTFDC1] | -0.298 | -0.858 | -0.334 | 56.5 | 55.5 | -0.113
MAGSSTGGGGVGETKVIYHLDEEETPYLVKIPVPAERITLGDFKSVLQRPAGAKYFFKSMDQDFGVVKEEISDDNARLPCFNGRVVSWLVSSDNPQPEMAPPVHEPRAELAPPAPPLPPLPPERTSGIGDSRPPSFHPNVSSSHENLEPETETESVVSLRRERPRRRDSSEHGAGGHRTGGPSRLERHLAGYESSSTLMTSELESTSLGDSDEEDTMSRFSSSTEQSSASRLLKRHRRRRKQRPPRLERTSSFSSVTDSTMSLNIITVTLNMEKYNFLGISIVGQSNERGDGGIYIGSIMKGGAVAADGRIEPGDMLLQVNDMNFENMSNDDAVRVLRDIVHKPGPIVLTVAKCWDPSPQAYFTLPRNEPIQPIDPAAWVSHSAALTGTFPAYPGSSSMSTITSGSSLPDGCEGRGLSVHTDMASVTKAMAAPESGLEVRDRMWLKITIPNAFLGSDVVDWLYHHVEGFPERREARKYASGLLKAGLIRHTVNKITFSEQCYYVFGDLSGGCESYLVNLSLNDNDGSSGASDQDTLAPLPGATPWPLLPTFSYQYPAPHPYSPQPPPYHELSSYTYGGGSASSQHSEGSRSSGSTRSDGGAGRTGRPEERAPESKSGSGSESEPSSRGGSLRRGGEASGTSDGGPPPSRGSTGGAPNLRAHPGLHPYGPPPGMALPYNPMMVVMMPPPPPPVPPAVQPPGAPPVRDLGSVPPELTASRQSFHMAMGNPSEFFVDVM [DVL2] | -0.00889 | 0.348 | 0.985 | 47 | 48.7 | -0.0693
MAGSVGLALCGQTLVVRGGSRFLATSIASSDDDSLFIYDCSAAEKKSQENKGEDAPLDQGSGAILASTFSKSGSYFALTDDSKRLILFRTKPWQCLSVRTVARRCTALTFIASEEKVLVADKSGDVYSFSVLEPHGCGRLELGHLSMLLDVAVSPDDRFILTADRDEKIRVSWAAAPHSIESFCLGHTEFVSRISVVPTQPGLLLSSSGDGTLRLWEYRSGRQLHCCHLASLQELVDPQAPQKFAASRIAFWCQENCVALLCDGTPVVYIFQLDARRQQLVYRQQLAFQHQVWDVAFEETQGLWVLQDCQEAPLVLYRPVGDQWQSVPESTVLKKVSGVLRGNWAMLEGSAGADASFSSLYKATFDNVTSYLKKKEERLQQQLEKKQRRRSPPPGPDGHAKKMRPGEATLSC [WDR4] | -0.256 | 0.0653 | -0.0979 | 52.8 | 53.9 | -0.396
MAGTRWVLGALLRGCGCNCSSCRRTGAACLPFYSAAGSIPSGVSGRRRLLLLLGAAAAAASQTRGLQTGPVPPGRLAGPPAVATSAAAAAAASYSALRASLLPQSLAAAAAVPTRSYSQESKTTYLEDLPPPPEYELAPSKLEEEVDDVFLIRAQGLPWSCTMEDVLNFFSDCRIRNGENGIHFLLNRDGKRRGDALIEMESEQDVQKALEKHRMYMGQRYVEVYEINNEDVDALMKSLQVKSSPVVNDGVVRLRGLPYSCNEKDIVDFFAGLNIVDITFVMDYRGRRKTGEAYVQFEEPEMANQALLKHREEIGNRYIEIFPSRRNEVRTHVGSYKGKKIASFPTAKYITEPEMVFEEHEVNEDIQPMTAFESEKEIELPKEVPEKLPEAADFGTTSSLHFVHMRGLPFQANAQDIINFFAPLKPVRITMEYSSSGKATGEADVHFETHEDAVAAMLKDRSHVHHRYIELFLNSCPKGK [GRSF1] | 0.345 | 0.523 | 3.06 | 47.9 | 49.1 | -0.0298
MAGTVVLDDVELREAQRDYLDFLDDEEDQGIYQSKVRELISDNQYRLIVNVNDLRRKNEKRANRLLNNAFEELVAFQRALKDFVASIDATYAKQYEEFYVGLEGSFGSKHVSPRTLTSCFLSCVVCVEGIVTKCSLVRPKVVRSVHYCPATKKTIERRYSDLTTLVAFPSSSVYPTKDEENNPLETEYGLSVYKDHQTITIQEMPEKAPAGQLPRSVDVILDDDLVDKAKPGDRVQVVGTYRCLPGKKGGYTSGTFRTVLIACNVKQMSKDAQPSFSAEDIAKIKKFSKTRSKDIFDQLAKSLAPSIHGHDYVKKAILCLLLGGVERDLENGSHIRGDINILLIGDPSVAKSQLLRYVLCTAPRAIPTTGRGSSGVGLTAAVTTDQETGERRLEAGAMVLADRGVVCIDEFDKMSDMDRTAIHEVMEQGRVTIAKAGIHARLNARCSVLAAANPVYGRYDQYKTPMENIGLQDSLLSRFDLLFIMLDQMDPEQDREISDHVLRMHRYRAPGEQDGDAMPLGSAVDILATDDPNFSQEDQQDTQIYEKHDNLLHGTKKKKEKMVSAAFMKKYIHVAKIIKPVLTQESATYIAEEYSRLRSQDSMSSDTARTSPVTARTLETLIRLATAHAKARMSKTVDLQDAEEAVELVQYAYFKKVLEKEKKRKKRSEDESETEDEEEKSQEDQEQKRKRRKTRQPDAKDGDSYDPYDFSDTEEEMPQVHTPKTADSQETKESQKVELSESRLKAFKVALLDVFREAHAQSIGMNRLTESINRDSEEPFSSVEIQAALSKMQDDNQVMVSEGIIFLI [MCM3] | 0.00594 | 1.52 | 2.24 | 51.5 | 51.2 | -0.0464
MAGVGAGPLRAMGRQALLLLALCATGAQGLYFHIGETEKRCFIEEIPDETMVIGNYRTQMWDKQKEVFLPSTPGLGMHVEVKDPDGKVVLSRQYGSEGRFTFTSHTPGDHQICLHSNSTRMALFAGGKLRVHLDIQVGEHANNYPEIAAKDKLTELQLRARQLLDQVEQIQKEQDYQRYREERFRLTSESTNQRVLWWSIAQTVILILTGIWQMRHLKSFFEAKKLV [TMED4] | 0.179 | 2.03 | 0.764 | 56 | 56.4 | -0.0477
MAGVRSLRCSRGCAGGCECGDKGKCSDSSLLGKRLSEDSSRHQLLQKWASMWSSMSEDASVADMERAQLEEEAAAAEERPLVFLCSGCRRPLGDSLSWVASQEDTNCILLRCVSCNVSVDKEQKLSKREKENGCVLETLCCAGCSLNLGYVYRCTPKNLDYKRDLFCLSVEAIESYVLGSSEKQIVSEDKELFNLESRVEIEKSLTQMEDVLKALQMKLWEAESKLSFATCKS [MIS18A] | -0.162 | -2.17 | -2.88 | 51.3 | 51.9 | 0.371
MAGVSFSGHRLELLAAYEEVIREESAADWALYTYEDGSDDLKLAASGEGGLQELSGHFENQKVMYGFCSVKDSQAALPKYVLINWVGEDVPDARKCACASHVAKVAEFFQGVDVIVNASSVEDIDAGAIGQRLSNGLARLSSPVLHRLRLREDENAEPVGTTYQKTDAAVEMKRINREQFWEQAKKEEELRKEEERKKALDERLRFEQERMEQERQEQEERERRYREREQQIEEHRRKQQTLEAEEAKRRLKEQSIFGDHRDEEEETHMKKSESEVEEAAAIIAQRPDNPREFFKQQERVASASAGSCDVPSPFNHRPGSHLDSHRRMAPTPIPTRSPSDSSTASTPVAEQIERALDEVTSSQPPPLPPPPPPAQETQEPSPILDSEETRAAAPQAWAGPMEEPPQAQAPPRGPGSPAEDLMFMESAEQAVLAAPVEPATADATEIHDAADTIETDTATADTTVANNVPPAATSLIDLWPGNGEGASTLQGEPRAPTPPSGTEVTLAEVPLLDEVAPEPLLPAGEGCATLLNFDELPEPPATFCDPEEVEGESLAAPQTPTLPSALEELEQEQEPEPHLLTNGETTQKEGTQASEGYFSQSQEEEFAQSEELCAKAPPPVFYNKPPEIDITCWDADPVPEEEEGFEGGD [DBN1] | -1.2 | -3.76 | -0.742 | 52.3 | 52.1 | 0.101
MAHRPKRTFRQRAADSSDSDGAEESPAEPGAPRELPVPGSAEEEPPSGGGRAQVAGLPHRVRGPRGRGRVWASSRRATKAAPRADEGSESRTLDVSTDEEDKIHHSSESKDDQGLSSDSSSSLGEKELSSTVKIPDAAFIQAARRKRELARAQDDYISLDVQHTSSISGMKRESEDDPESEPDDHEKRIPFTLRPQTLRQRMAEESISRNEETSEESQEDEKQDTWEQQQMRKAVKIIEERDIDLSCGNGSSKVKKFDTSISFPPVNLEIIKKQLNTRLTLLQETHRSHLREYEKYVQDVKSSKSTIQNLESSSNQALNCKFYKSMKIYVENLIDCLNEKIINIQEIESSMHALLLKQAMTFMKRRQDELKHESTYLQQLSRKDETSTSGNFSVDEKTQWILEEIESRRTKRRQARVLSGNCNHQEGTSSDDELPSAEMIDFQKSQGDILQKQKKVFEEVQDDFCNIQNILLKFQQWREKFPDSYYEAFISLCIPKLLNPLIRVQLIDWNPLKLESTGLKEMPWFKSVEEFMDSSVEDSKKESSSDKKVLSAIINKTIIPRLTDFVEFLWDPLSTSQTTSLITHCRVILEEHSTCENEVSKSRQDLLKSIVSRMKKAVEDDVFIPLYPKSAVENKTSPHSKFQERQFWSGLKLFRNILLWNGLLTDDTLQELGLGKLLNRYLIIALLNATPGPDVVKKCNQVAACLPEKWFENSAMRTSIPQLENFIQFLLQSAHKLSRSEFRDEVEEIILILVKIKALNQAESFIGEHHLDHLKSLIKED [GCFC2] | 0.109 | -2.18 | -1.62 | 51.2 | 51.7 | -0.0501
